Reference: PMC12209146 (Cellular and Molecular Life Sciences: CMLS, 2025)

Biological target: toxin B (TcdB) from Clostridioides difficile VPI 10,463 (Clostridioides difficile VPI 10,463, UniProt P18177 1-2366)
Assay: co-sedimentation; in vitro precipitation assay: TcdB (50 ng, 2 ng/µl) with α-defensin-6 (6 µM) or Angie peptides (100 µM) in 25 µl PBS, 30 min at 37 °C; centrifuged 20 min, 14,000 rpm, 4 °C; supernatant and pellet immunoblotted for TcdB
Conditions: both partners purified

Chain of toxin B (TcdB) from Clostridioides difficile VPI 10,463 (P18177 whole entry): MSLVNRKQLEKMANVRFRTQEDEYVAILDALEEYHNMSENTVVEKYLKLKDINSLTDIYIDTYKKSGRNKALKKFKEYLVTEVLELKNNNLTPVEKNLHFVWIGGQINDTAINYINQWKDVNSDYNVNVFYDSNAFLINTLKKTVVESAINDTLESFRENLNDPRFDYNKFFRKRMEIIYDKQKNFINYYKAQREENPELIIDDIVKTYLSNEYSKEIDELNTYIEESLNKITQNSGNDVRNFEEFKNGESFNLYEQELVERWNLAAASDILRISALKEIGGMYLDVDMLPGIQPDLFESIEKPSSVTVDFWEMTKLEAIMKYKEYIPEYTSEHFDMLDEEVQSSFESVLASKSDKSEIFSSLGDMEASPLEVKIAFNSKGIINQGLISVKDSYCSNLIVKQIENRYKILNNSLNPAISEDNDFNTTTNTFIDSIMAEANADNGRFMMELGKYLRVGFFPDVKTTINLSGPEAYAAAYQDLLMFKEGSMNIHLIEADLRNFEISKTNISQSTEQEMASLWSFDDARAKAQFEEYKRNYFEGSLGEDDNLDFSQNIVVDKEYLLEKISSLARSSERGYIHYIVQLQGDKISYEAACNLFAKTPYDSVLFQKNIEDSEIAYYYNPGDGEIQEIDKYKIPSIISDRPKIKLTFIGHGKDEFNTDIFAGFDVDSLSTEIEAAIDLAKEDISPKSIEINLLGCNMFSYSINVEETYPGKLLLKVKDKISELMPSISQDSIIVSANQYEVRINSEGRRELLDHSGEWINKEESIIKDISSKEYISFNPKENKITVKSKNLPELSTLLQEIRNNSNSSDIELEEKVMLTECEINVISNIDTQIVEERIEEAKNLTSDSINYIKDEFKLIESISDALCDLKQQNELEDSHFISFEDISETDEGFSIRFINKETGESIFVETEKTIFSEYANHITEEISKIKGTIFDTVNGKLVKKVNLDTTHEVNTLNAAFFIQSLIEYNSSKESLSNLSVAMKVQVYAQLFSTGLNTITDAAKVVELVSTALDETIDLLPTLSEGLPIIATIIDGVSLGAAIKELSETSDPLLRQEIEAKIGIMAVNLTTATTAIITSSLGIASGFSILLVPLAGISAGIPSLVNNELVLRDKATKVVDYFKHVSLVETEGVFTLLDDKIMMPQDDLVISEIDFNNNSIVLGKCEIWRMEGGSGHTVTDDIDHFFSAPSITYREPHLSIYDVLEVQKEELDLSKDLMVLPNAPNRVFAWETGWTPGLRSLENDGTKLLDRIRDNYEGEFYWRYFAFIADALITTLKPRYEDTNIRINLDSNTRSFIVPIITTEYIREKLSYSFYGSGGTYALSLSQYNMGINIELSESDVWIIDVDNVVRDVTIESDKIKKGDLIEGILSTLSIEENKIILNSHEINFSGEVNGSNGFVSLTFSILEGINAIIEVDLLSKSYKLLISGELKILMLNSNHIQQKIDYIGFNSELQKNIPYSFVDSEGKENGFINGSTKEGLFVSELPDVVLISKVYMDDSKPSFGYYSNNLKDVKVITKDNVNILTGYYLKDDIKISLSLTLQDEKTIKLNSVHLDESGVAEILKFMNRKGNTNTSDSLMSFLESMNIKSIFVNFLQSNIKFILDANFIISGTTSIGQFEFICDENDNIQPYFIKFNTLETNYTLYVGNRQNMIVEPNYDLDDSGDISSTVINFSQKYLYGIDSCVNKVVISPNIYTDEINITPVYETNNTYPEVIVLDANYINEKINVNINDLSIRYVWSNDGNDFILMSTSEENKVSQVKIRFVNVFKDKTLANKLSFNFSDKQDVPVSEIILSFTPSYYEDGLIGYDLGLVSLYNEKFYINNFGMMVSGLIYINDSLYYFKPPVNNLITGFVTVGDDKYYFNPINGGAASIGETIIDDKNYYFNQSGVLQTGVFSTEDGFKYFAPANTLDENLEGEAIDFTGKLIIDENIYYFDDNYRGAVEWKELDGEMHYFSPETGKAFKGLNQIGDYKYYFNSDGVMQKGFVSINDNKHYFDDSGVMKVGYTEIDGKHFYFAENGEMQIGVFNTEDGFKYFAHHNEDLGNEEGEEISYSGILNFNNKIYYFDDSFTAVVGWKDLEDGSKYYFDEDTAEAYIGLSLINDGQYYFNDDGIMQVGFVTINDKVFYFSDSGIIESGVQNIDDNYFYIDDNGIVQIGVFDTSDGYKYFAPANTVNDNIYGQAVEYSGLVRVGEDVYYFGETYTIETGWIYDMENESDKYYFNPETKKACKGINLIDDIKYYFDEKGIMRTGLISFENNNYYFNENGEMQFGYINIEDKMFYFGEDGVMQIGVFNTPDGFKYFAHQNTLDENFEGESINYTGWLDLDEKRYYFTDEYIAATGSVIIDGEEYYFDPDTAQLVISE

AFTCHCRRSCYSTEYSYGTCTVMGINHRFCCL (peptide, UniProt Q01524 69-100, looked up) [human peptide α-defensin-6]
binding result: binds
